Source: patent US20230270892A1, “CHELATOR COMPOSITIONS FOR RADIOMETALS AND METHODS OF USING SAME” (TRIUMF INC., priority 2020, published 2023)

Legend:
in vivo = assay: in vivo; design: species or system mice; details: male, C57BL/6J, mouse, iv, total radioactivity
Method: The inventors performed an in vivo evaluation to establish the biodistribution profile of ^225Ac-crown-αMSH in B16F10 tumor bearing mice. The B16F10 cell line (Mus musculus) was obtained commercially from ATCC (CRL-6475), and confirmed pathogen-free using the IMPACT 1 mouse profile (IDEXX BioResearch). The cells were cultured in DMEM media (StemCell Technologies) supplemented with 10% FBS, 100 U/mL penicillin and 100 µg/mL streptomycin at 37° C. in a humidified incubator containing 5% CO2. All animal experiments were conducted according to the guidelines established by Canadian Council on Animal Care and approved by Animal Ethics Committee of the University of British Columbia (UBC). Male C57BL/6J mice were acquired in-house and kept under pathogen-free conditions in the Animal Resource Centre at the BC Cancer Research Centre. The mice were anesthetised by inhalation of 2% isoflurane in 2 L/min oxygen, and 1 x10^6 B16F10 cells were inoculated subcutaneously at right flank. Two to four days after inoculation, the mice were transferred to the UBC Centre of Comparative Medicine, where biodistribution studies were performed once the tumors reached 8-10 mm. At the day of biodistribution mice were injected in the tail vein with ~20 kBq of ^225Accrown-αMSH (range: 10.8-31.6 kBq). After injection mice were allowed to roam freely in their cages, and they were euthanized in groups of 4 at 2 hours post injection by CO2 asphyxiation under isoflurane anesthesia. Blood was collected by cardiac puncture and a full biodistribution performed. Organs were cleaned from blood, weighed and the activity determined using a calibrated gamma counter (Packard Cobra II Auto-gamma counter, Perkin Elmer, Waltham, MA, USA) using three energy windows: 60-120 keV (window A), 180-260 keV (window B), and 400-480 keV (window C). Counting was performed after 6 hours post-sacrifice to ensure equilibrium of the ^225Ac decay chain. Counts were decay corrected from the time of sacrifice and total organ weights were used for the calculation of injected dose per gram of tissue (% ID/g). No differences were noted between the data calculated by three different windows; therefore, the biodistributions are reported using the data acquired using window A. The inventors evaluated biodistribution of ^225Ac-crown-αMSH in mice bearing B16F10 tumors at 2 h post-injection (p.i.) in two separate studies using a total of 5 groups of mice (Table 3). In the first study, three conditions were evaluated: ^225Ac-crown-αMSH prepared the day before (18 h) (A, FIG. 22, right bars), same day (4 h) (B), or same day (4 h) with Sep-Pak purification (C); in the second study the inventors compared 225Ac-crown-αMSH labelled 4 hours before with Sep-Pak purification and with the introduction of 0.1 M L-ascorbate (D, FIG. 22, left bars), or ^225Ac-crown-αMSH prepared 18 hours prior with L-ascorbate (E).

[1] = DTPA challenge (transmetallation) of ^225Ac-crown-αMSH on HPLC; type: physicochemical; details: addition of 1000 eq. of DTPA, in 7 hours
[2] = Stability of ^225Ac-labelled crown complex left at ambient temperature; type: physicochemical; details: up to 5 days and up to 8 days in a second experiment
Method: The reaction was largely complete after 10 min. […] To obtain the data shown in FIG. 14, labeling with crown was conducted at room temperature for a period of 15 minutes, while labelling with DOTA was conducted at 90° C. for a period of 15 minutes.

free ^225Ac observed [2]	Compound	tissue uptake at 2 h (in vivo; 20 kBq, Biodistribution: Bone)	tissue to tissue ratio at 2 h (in vivo; tumor to blood ratio)	tissue to tissue ratio at 2 h (in vivo; tumor to bone ratio)	tissue to tissue ratio at 2 h (in vivo; tumor to kidneys ratio)	tissue uptake at 2 h (in vivo; tumor uptake)	transmetallation on HPLC [1]
–	CCCC[C@H](NC(=O)CN1CCC(NC(=O)CN2CCOCCN(CC(=O)O)CCN(CC(=O)O)CCOCCN(CC(=O)O)CC2)CC1)C(=O)N[C@H]1CC(=O)NCCCC[C@@H](C(N)=O)NC(=O)[C@H](Cc2c[nH]c3ccccc23)NC(=O)[C@H](CCCNC(=N)N)NC(=O)[C@@H](Cc2ccccc2)NC(=O)[C@H](Cc2c[nH]cn2)NC1=O [^225Ac-crown-αMSH, metal not drawn]	1.82 %ID/g	85.4 ± 46.8	63.5 ± 13.2	2.8 ± 0.98	12.7 ± 2.31 %ID/g	64%
< 2%	O=C(O)CN1CCOCCN(CC(=O)O)CCN(CC(=O)O)CCOCCN(CC(=O)O)CC1 [crown, 2,2’,2”,2’”-(1,10-dioxa-4,7,13,16-tetraazacyclooctadecane-4,7,13,16-tetrayl)tetraacetic acid]	–	–	–	–	–	–
